These results are taken from PMC5609113, “Substrate Specificity and Inhibitor Sensitivity of Plant UDP-Sugar Producing Pyrophosphorylases” (Frontiers in Plant Science, 2017).

Series [1] addresses T1, barley UGPase (Hordeum vulgare, UniProt Q43772).
T1 construct: recombinant, expressed in E. coli, purified to homogeneity as earlier reported
The experiment in a line: Pi release from PPi, phosphomolybdate colorimetry. It is filed as biochemical. The conditions noted are these: forward reaction, 5 mM MgCl2, pH 7.5, room temperature.

For series [2], the target named is T2, Arabidopsis UGPase2 (Arabidopsis thaliana, UniProt P57751).
T2 construct: gene UGP1; recombinant, expressed in E. coli, purified to homogeneity as earlier reported
The experiment in a line: Pi release from PPi, phosphomolybdate colorimetry. It is filed as biochemical. Particulars: 1 mM Glc-1-P; 1 mM UTP; 5 mM MgCl2; pH 7.5; room temperature.

Series [3] deals with C[C@H]1O[C@H](OP(=O)(O)O)[C@H](O)[C@@H](O)[C@H]1O. As to the kind of experiment: Pi release from PPi, phosphomolybdate colorimetry. It is filed as biochemical, Arabidopsis thaliana. Particulars: forward reaction, co-substrate UTP, 5 mM MgCl2, pH 7.5, room temperature.
Series [4] relates to O=C(O)[C@H]1O[C@H](OP(=O)(O)O)[C@H](O)[C@@H](O)[C@H]1O. As to the kind of experiment: Pi release from PPi, phosphomolybdate colorimetry. It counts as biochemical, Arabidopsis thaliana. Particulars: forward reaction, co-substrate UTP, 5 mM MgCl2, pH 7.5, room temperature.
For series [5], the system named is O=P(O)(O)O[C@H]1O[C@H](CO)[C@@H](O)[C@H](O)[C@H]1O. The experiment in a line: Pi release from PPi, phosphomolybdate colorimetry. It is filed as biochemical, Hordeum vulgare. Particulars: forward reaction, co-substrate UTP, 5 mM MgCl2, pH 7.5, room temperature.
Series [6] addresses T3, Arabidopsis UGPase1 (Arabidopsis thaliana, UniProt Q9M9P3).
T3 construct: gene UGP2; recombinant, expressed in E. coli, purified to homogeneity as earlier reported
The experiment in a line: Pi release from PPi, phosphomolybdate colorimetry. It is filed as biochemical. The conditions noted are these: forward reaction; 5 mM MgCl2; pH 7.5; room temperature; estimate, clouding at and above 3 mM.

For series [7], the system named is O=P(O)(O)OP(=O)(O)O. The experiment in a line: purified protein. Particulars: reverse reaction, co-substrate UDP-Glc, 5 mM MgCl2, pH 7.5. It is filed as biochemical, Arabidopsis thaliana.
In series [8] the test system is O=c1ccn([C@@H]2O[C@H](CO[P@@](=O)(O)O[P@@](=O)(O)O[C@H]3O[C@H](CO)[C@@H](O)[C@H](O)[C@H]3O)[C@@H](O)[C@H]2O)c(=O)[nH]1. As to the kind of experiment: purified protein. It is filed as biochemical, Arabidopsis thaliana. Particulars: reverse reaction, co-substrate PPi, 5 mM MgCl2, pH 7.5.
In series [9] the test system is O=P(O)(O)O[C@H]1O[C@H](CO)[C@@H](O)[C@H](O)[C@H]1O. The experiment in a line: Pi release from PPi, phosphomolybdate colorimetry. It counts as biochemical, Arabidopsis thaliana. Particulars: forward reaction, co-substrate UTP, 5 mM MgCl2, pH 7.5, room temperature.
Series [10] concerns CC(=O)N[C@H]1[C@@H](OP(=O)(O)O)O[C@H](CO)[C@H](O)[C@@H]1O. As to the kind of experiment: Pi release from PPi, phosphomolybdate colorimetry. It is filed as biochemical, Arabidopsis thaliana. The conditions noted are these: forward reaction, co-substrate UTP, 5 mM MgCl2, pH 7.5, room temperature.
Series [11] concerns O=c1ccn([C@@H]2O[C@H](COP(=O)(O)OP(=O)(O)OP(=O)(O)O)[C@@H](O)[C@H]2O)c(=O)[nH]1. As to the kind of experiment: Pi release from PPi, phosphomolybdate colorimetry. It counts as biochemical, Arabidopsis thaliana. The conditions noted are these: forward reaction, co-substrate GalNAc-1-P, 5 mM MgCl2, pH 7.5, room temperature.

T1 sequence (Q43772 whole entry): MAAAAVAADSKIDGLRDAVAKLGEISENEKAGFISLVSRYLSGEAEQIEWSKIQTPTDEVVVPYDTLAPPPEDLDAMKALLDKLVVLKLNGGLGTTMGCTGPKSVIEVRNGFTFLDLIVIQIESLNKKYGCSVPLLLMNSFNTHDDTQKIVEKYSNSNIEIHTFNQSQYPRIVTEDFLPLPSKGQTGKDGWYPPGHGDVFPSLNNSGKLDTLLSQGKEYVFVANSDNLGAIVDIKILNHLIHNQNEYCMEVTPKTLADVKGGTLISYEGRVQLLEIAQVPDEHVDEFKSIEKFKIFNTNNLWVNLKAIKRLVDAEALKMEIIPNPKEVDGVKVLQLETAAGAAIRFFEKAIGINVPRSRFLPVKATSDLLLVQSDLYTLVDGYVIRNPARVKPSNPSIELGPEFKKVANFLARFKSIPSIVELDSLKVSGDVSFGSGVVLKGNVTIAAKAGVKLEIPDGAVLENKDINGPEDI
T2 sequence (P57751 2-470): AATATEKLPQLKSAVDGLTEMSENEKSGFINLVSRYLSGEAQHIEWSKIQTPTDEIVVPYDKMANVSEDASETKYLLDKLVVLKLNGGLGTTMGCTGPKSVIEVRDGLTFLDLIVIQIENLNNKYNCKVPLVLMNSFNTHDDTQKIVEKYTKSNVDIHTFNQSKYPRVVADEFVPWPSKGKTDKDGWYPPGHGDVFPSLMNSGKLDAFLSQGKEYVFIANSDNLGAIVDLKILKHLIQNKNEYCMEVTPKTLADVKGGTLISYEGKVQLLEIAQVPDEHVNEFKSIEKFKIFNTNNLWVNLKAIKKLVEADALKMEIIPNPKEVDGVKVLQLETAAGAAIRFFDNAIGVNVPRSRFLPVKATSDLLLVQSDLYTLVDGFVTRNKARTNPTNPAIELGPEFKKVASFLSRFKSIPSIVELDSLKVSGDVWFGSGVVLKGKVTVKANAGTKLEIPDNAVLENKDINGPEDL
T3 sequence (Q9M9P3 2-469): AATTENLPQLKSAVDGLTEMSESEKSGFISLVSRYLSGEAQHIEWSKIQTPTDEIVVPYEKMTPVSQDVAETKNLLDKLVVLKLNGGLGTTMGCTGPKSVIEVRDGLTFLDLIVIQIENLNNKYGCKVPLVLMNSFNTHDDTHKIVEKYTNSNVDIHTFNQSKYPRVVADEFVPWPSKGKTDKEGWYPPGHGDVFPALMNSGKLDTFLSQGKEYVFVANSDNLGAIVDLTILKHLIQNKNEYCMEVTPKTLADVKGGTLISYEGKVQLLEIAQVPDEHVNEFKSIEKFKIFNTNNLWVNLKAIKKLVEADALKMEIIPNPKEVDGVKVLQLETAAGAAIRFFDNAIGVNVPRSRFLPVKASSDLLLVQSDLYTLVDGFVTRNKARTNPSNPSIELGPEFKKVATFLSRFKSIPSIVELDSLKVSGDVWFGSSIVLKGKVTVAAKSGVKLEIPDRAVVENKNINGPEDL

For the compound `O=P(O)(O)O[C@H]1O[C@H](CO)[C@H](O)[C@H](O)[C@H]1O` [Gal-1-P], in [1] (estimate from near-linear rate up to 10 mM), the Km was more than 10 mM.

With `O=c1ccn([C@@H]2O[C@H](COP(=O)(O)OP(=O)(O)OP(=O)(O)O)[C@@H](O)[C@H]2O)c(=O)[nH]1` [UTP], the “Pi release from PPi, phosphomolybdate colorimetry” value in series [2] was “plant UGPases are highly specific for Glc-1-P and UTP as substrates”.

In the case of “Arabidopsis USPase (Arabidopsis thaliana)”, the Michaelis constant (Km) in series [3] was 3.4 mM; in series [4] it was 1.3 mM.

For barley UGPase (Hordeum vulgare), the Michaelis-Menten constant (Km) in series [5] stood at 0.45 mM.

`O=P(O)(O)OCC1(O)O[C@H](CO)[C@@H](O)[C@@H]1O` (some centres unmarked) [Fru-1-P]: the Michaelis-Menten constant (Km) in series [1] (estimate, clouding at and above 3 mM) is more than 10 mM; in series [6] it was more than 10 mM.

Turning to “Arabidopsis UAGPase2 (Arabidopsis thaliana)”, the Michaelis constant (Km) in series [7] is recorded as 0.32 mM; in series [8], 0.21 mM; in series [9], 3.2 mM; in [10] it was 1.0 mM; in [11], 3 mM.

`O=P(O)(O)O[C@H]1O[C@H](CO)[C@@H](O)[C@H](O)[C@H]1O` [Glc-1-P]: in series [2], the “Pi release from PPi, phosphomolybdate colorimetry” value was “plant UGPases are highly specific for Glc-1-P and UTP as substrates”.

For `O=P(O)(O)O[C@]1(CO)O[C@H](CO)[C@@H](O)[C@@H]1O` [Fru-2-P], in series [1], the Michaelis constant (Km) was more than 10 mM.

As usually defined, the Km is the substrate concentration at which the rate is half of its maximum.
